Test results: paper PMC2173521

Tests used:
[1] = target: N-1 peptide (derived from HRA of the SV5 F protein) (SV5 (W3A strain))
[2] = target: N-1 peptide (derived from HRA of the SV5 F protein) (SV5 (W3A strain)); experiment: AUC

| Substance | IC50 inhibition of cell–cell fusion by SV5 F (T7 luciferase reporter gene assay) [1] [nM] | Mobs/Mcalc (mol wt found over that calculated for one N-1/C-1 heterodimer) [2] |
| --- | --- | --- |
| C-1 peptide (derived from HRB of the SV5 F protein), wild type | 38 |  |
| C-1 peptide I449A | 115 | 2.8 |
| C-1 peptide I449F | 151 | 2.9 |
| C-1 peptide I449G | 271 | 2.9 |
| C-1 peptide I449L | 54 | 2.8 |
| C-1 peptide I449V | 58 | 3 |
| C-1 peptide I449W | 146 |  |
| C-1 peptide L447A | 92 | 2.8 |
| C-1 peptide L447F | 100 | 2.9 |
| C-1 peptide L447G | 150 | 2.7 |
| C-1 peptide L447I | 50 | 2.8 |
| C-1 peptide L447V | 83 | 2.8 |
| C-1 peptide L447W | 106 | 3.1 |
